The nature of this data set: soluble fraction after stress (log2 fold change); higher = more stays soluble; pooled small domains, quantitative proteomics. The note with it: stress: pH 4. In a few lines: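 Aggregation propensity here comes from the fold change in the soluble amount of each small protein domain after acid stress, measured in pooled custom libraries by high-throughput quantitative proteomics. The acid stress was pH 4. On the log2 scale, higher values mean more of the domain stayed soluble.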
As for “HMGDAVSRAYFALADDLLKGELTETVSEVLIRTRYELTSAQLQAVLHRIAQEGWAHKKPGYGWEFSAMLT”, the “soluble fraction (log2)” value was -1.39.
The value for “HMGDEHYDTISAFIKSVRGSDPDAALYWLAKMILAGEDPRFILRRLIVLSGEDIGLADPQGI” was -0.346; that for “HMGDEPGAGYKWREDVLLRVMSEHGIDESARDDFVRHAVKFDDDDNLYLKKAEIIAAAEAWESSS” was -2.05; that for “HMGDFLLQVDFPPALLEMLPEGKRQAAIGVLSHDPRPAYQRTPGRVYGLNFAGHNIRFAVSENLLTVLEV” was -0.302.
For “HMGDFLLTPHRGRSADFVIGNPPYIRLEDVPNDISDAYRAEYASMPGRADIHVGFYEKGLDL” the value was -0.506; for “HMGDFVIVPDLIGKTIEEFDSELNELNLKYIISDSGNYNPDFKINSVLDQLPNANSKVKGGRKIYITLNAS”, -1.48; for “HMGDGAWQQGEGGRWWYKYNNGTYPKDRVVTIGGKKYGFDSEGWMLSDTTKAFGGTTYSFAADGVATAQA”, -0.247.
Consider “HMGDGYTYYYDDTVLALGFTKIGNDYYIFNTFSGKMYKDATMWVNDNPYGIKGGMHYFDASGKMFV”, for which the “soluble fraction (log2)” value was -0.439.
The value for “HMGDIFTAEDAKERIDYSGVDGIMLARGIFGNPWLIRDIREYLEYGKILHPVTQLDRVNMAIEHTRKT” was -0.25.
The value for “HMGDIMLLFKENGKVYFLVGNQYTYVKNPTELSAIKTMMKQAGYDTHEHTNTTQVAYIKRLATE” was -0.419; that for “HMGDKVLIQTAQRLKKDLPFASIVSRFGGDEFLIFLPGISSTERVETIVKKTVFLFIAISTTLF” was -0.0999.
Take “HMGDLKSLIQATMDDAGISIKPDAMDYLISHLGSDRLTTRAELDKLILYAGADDKLDLDSVVELVG”: the “soluble fraction (log2)” value is -0.794.
As for “HMGDLLTVDRVAATSGLGVDTIRYYQRLGLLDPPVRHGRRALYSTAHLDRLVEIRQLADEGFSLAQIATL”, the “soluble fraction (log2)” value is -0.816.
The value for “HMGDLVFDFVHGVHKAAEVEKELVMQALRFTHGNVSRAARLIGMQRSSLRYRIERYRLDAFVMEVAN” was -0.0309.
For “HMGDPSSERNIQKSIFILIGEKALSVQDISRSLGMPNDIIDKALISGVERNLWLSSDKGEYYL” the value was -1.04; for “HMGDRRSVFEQSVLDAIKSLVKQGELATTKAISDHIGTNYQGNVSRAITALLADNKIKKLPKEGVLQPYEA”, -0.00881.
As for “HMGDSFLDHKKELQSMILSRLDLSREVPDEEIKDIIDELIIAQSKKLFLSLNDRGKLRQELFYSIRK”, the “soluble fraction (log2)” value is -0.906.
For “HMGDSVLNDKLNTLAGLDEERFKWVLASLNPNNSYSTHSDKMSALMWLVSYFNDEADLKETVPPLPI” the value was -0.325; for “HMGDTIFINNNFYVKHIVEFGETIDIISKIYDVSVNKILETNETSTKLYSGQSLFIPININV”, -1.99; for “HMGDTLEIVVIYSNKQKAEEAVNNLKGKFEDLGYNFAIITVDTSKITQLAMESSIQYIEFPKSFYFSD”, -1.29.
For “HMGDVATVKLDNNGLLNMRKSDARGADIVARIPNGTVVQVLNRETEWTQVRYDGKEGYVMSSFLQFAE” the value was 0.0427; for “HMGDVPESLVEKAGHSINAKIISAWGMTETGASTMTRPQDDPERAIYSDGVVLPLMDVRVVNDAGLA”, -0.271.
For “HMGDWEKALAQFAAHRLANGSTAFLDEMYPIFERILLQAALNKTGGRKIEAAELLGWGRNTLTRKLKELGF” the value was -1.01; for “HMGDYERVPEYKGKLTSDLTMEDSQKFAFRFIWQNSDEDEGKIIDQDPPAGKSVAKGSEIVLYVSNG”, -0.0695; for “HMGEAAIYRINILINNLNVRSGPGTLYPRLRRADFPGEYDIFEEKNGFGRISNTKSEWVSLNTQYVQRLT”, 0.158.
“HMGEAIPVPDLKHKALTDAEHLVHELGLEIQVVDTGYVKSLPADYILGQSLAPGEKVKSGHIIYVTINSP”: the “soluble fraction (log2)” value came to 0.0193.
For “HMGEGTAVGKALKFLAAQGKKFAPELLDMAGSLTGVEALSKLGDAIKGDPELSELDKRILLAELETDAV” the value was -0.744.
The value for “HMGEIHALIPGLVSRLFVKPGDRVENGQGLLILEAMKMENEIDSPISGVVGKIYIKAGDKVEKGELIMEIN” was 0.115; that for “HMGEIVVPDLIGKSLTEATRILSDSTLTVGKVNYQISSTLLPNTVLDQYPAPGNKLNSGNTVDLFITKE” was -0.0586.
The value for “HMGEKTLSEKVYDRLKELIMDGELERGTKITETSIAKMFDVSPTPVREAFRKLASDGLIEVASWKGVIVKG” was 0.338; that for “HMGELYGTDQYKDGDAQDTNIGKLLEVNIDGKWQVATTGTSRFEFAGVMDDNGHKLIMISVLPEAKTV” was -0.647; that for “HMGEPLSPDARALTNVLRHYRGWAEPGELARKSGLGSRERVLTAAQSLVNAGLADIERGMVRPTAALMEVQ” was -0.0354.
As for “HMGEPVASSREVAKRFGKEHKHVLAAIRQILVAENSATKFFHETAFEYRGQRFPEYLMNRDGFALLAMGF”, the “soluble fraction (log2)” value was -1.35.
For “HMGEPVNSPMPGTILRVEVTQGAAVKEGQLLVVLEAMKMENEILAPKDGTVAQVVVQKGSHVETGSPLIVL” the value was -0.429.
Take “HMGEQLALLERARTLLEDETLETEVQKELEMLLEDIEAARAEANATQLEDLFEELADLLFDLE”: the “soluble fraction (log2)” value was -0.193.
For “HMGEQYYVLIDNKQNGPHNINAIQKMIDQNIVNRQTLIWKKGMTDWGNIMDDKDLKEMVNKIP” the value was 0.0559; for “HMGERMELTLDNPREAIPVLDAMGFANYQVVDKEHIHIFERLNESALVNMELAKAGIPVKGISITSE”, -0.523.
For “HMGESEWIVKWRGEKRDEERLQESELVRDDPEHRISVVRPRDDVDASAWLNRWRKSRYVQYIQPNHRVTIS” the value was 0.0349; for “HMGESFPYVAYATDSVRLRARPSSSATILTVIRKGDAVLITGADGSYKIVEYEGRKGYVVSAFLSSQET”, -0.00452; for “HMGESVQVPSYVGMGFREAARKARARDFGVAVSDSIYVPGKPPGEIIAQDPKAESRVKEGRTIYFTVAK”, -0.0612.
In the case of “HMGETAFRYALPLDQGEALKRSHVIRQSISPDDALATRVTVLEDVLDQTLRQPVQAGEVLLEDHFTR”, the “soluble fraction (log2)” value was -0.682.
For “HMGETRWTYDDFGNILTEKAAPYSATEFLGKTYTYDTDNRYLKTVTDALGRTTTTLSYDKYGNPLSVMD” the value was -0.357; for “HMGETWYEILEISSDATTEEIRQAYFEQARQYHPDTNPGELAREWFYQVQEAYETLSDPDRRRQYDESIKG”, -2.16; for “HMGEVEVPDLVGIEAIQAKTLLFNSDFLIKEFYDYDPTQPIGVVIRQAPEAGTTQTIGDSVTITINRA”, -0.0721.
The value for “HMGEVISRSYPLLKTKAKPAEVSEALQKLIKAPATVTFDEKNEVFHINATRLQHTWAEGYFKGLHGK” was -0.172.
For “HMGEVPPGWSVEALAAIERDLAHHVGPVARVLVQRGARLHTTTDDLRSALANAITDDLARRRFMQP” the value was -0.635; for “HMGFEALRSRHRITAREMEVLQHMLAGRSNAEIGHTLGLSERTVKTHITSIFNKLGVDSRAQLGYMLK”, 0.366; for “HMGFLTKTQRLEILLHLKDEPYYNVEKLKELIKNRYGIVYQSSQSYYDLLKEAGLSWHQTQA”, 0.00834.
For “HMGFVTVTEVDTTADLKLARVYVSVLGPEEQWAKSFTALESARGFVWNWLRKHLDLRVTPQLAF”, the “soluble fraction (log2)” value was -1.74.
As for “HMGGASVTDQQIRDFVSAHTDDPMAIYKAAVANGISSARLAQVTGISIADIEAFVRKNNLPSF”, the “soluble fraction (log2)” value was -0.206.

Values taken from the domain aggregation screens of Martell et al. (2025).
